Reference: US20220331457A1

Experiments:
[1] = biological target: human carbonic anhydrase IX (CAIX) (human) (UniProt Q16790); assay: SPR (Biacore T200), multicycle kinetics; purified antibody captured on Protein G chip, CAIX as analyte
[2] = biological target: human carbonic anhydrase IX (CAIX) (human) (UniProt Q16790); assay: competition ELISA on coated CAIX; competitor: biotinylated chimeric Girentuximab IgG1

relative KD (KD of the variant divided by KD of the chimeric antibody on the same chip) [1]: < 2 fold
relative IC50 (IC50 of the variant divided by IC50 of the Girentuximab chimeric IgG1 antibody on the same plate) [2]: < 2 fold
Substance: Chimeric Girentuximab (VH0/Vκ0) IgG4 (S228P, L235E) (antibody)
